# Measured values as given in patent US20240044903A1 (KOZA NOVEL MATERIALS KOREA, published 2024).
# T1: human cytosolic TK1 in CEM TK1+ cell extract (human, UniProt P04183 2-234)
# T1 construct: Cell extract with 25 ug (also printed as 25 pg) of protein; also called wild-type of CEM cell extract; cytosolic TK1 from human (CEM+)
# T1 sequence: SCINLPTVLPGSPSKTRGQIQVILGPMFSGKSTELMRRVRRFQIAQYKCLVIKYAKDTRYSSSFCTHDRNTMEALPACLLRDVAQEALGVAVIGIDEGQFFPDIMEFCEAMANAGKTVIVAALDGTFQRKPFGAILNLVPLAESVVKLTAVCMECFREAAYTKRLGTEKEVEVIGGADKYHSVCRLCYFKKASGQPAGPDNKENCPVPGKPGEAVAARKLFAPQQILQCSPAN
# T2: recombinant equine TK1 (horse, UniProt P04183 2-234 (human entry))
# T2 construct: also called rETK1; horse TK1
# T2 chain: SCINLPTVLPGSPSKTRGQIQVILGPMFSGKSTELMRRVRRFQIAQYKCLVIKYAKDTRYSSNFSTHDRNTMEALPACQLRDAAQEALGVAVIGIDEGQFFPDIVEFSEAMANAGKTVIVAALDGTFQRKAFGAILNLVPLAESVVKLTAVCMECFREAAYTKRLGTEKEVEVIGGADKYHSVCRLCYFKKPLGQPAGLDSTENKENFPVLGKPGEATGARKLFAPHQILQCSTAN
# T3: recombinant feline TK1 (cat, UniProt P04183 2-234 (human entry))
# T3 construct: also called rFTK1; cat TK1
# T3 chain: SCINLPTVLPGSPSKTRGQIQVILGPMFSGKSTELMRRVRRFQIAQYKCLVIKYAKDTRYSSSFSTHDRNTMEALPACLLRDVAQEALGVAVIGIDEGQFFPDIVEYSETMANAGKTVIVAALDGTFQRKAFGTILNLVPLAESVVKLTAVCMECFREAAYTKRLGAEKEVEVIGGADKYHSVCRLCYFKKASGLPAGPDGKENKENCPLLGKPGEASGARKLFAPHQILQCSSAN
# T4: recombinant human TK1 (human, UniProt P04183 1-234, limits assumed)
# T4 construct: also called rHTK1; human recombinant TK1
# T4 sequence: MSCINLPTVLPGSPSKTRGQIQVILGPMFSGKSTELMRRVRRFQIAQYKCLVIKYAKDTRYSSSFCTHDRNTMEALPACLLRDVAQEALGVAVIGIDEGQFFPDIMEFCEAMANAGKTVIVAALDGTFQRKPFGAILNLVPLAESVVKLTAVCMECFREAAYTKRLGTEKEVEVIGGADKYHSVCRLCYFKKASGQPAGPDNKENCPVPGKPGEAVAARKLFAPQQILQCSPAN
# T5: recombinant canine TK1 (dog)
# T5 construct: also called rCTK1; recombinant dog TK1
# T5 chain: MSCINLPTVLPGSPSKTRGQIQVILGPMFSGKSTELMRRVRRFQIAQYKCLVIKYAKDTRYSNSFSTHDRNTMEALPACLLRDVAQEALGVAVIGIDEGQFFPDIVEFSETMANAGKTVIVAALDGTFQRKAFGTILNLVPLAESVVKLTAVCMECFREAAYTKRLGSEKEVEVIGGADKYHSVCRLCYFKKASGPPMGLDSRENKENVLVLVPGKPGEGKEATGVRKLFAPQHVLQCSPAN
# What was measured:
# [1] = molecular target: T1, human cytosolic TK1 in CEM TK1+ cell …; assay: Western blot after SDS-PAGE of denatured cell extract
# Procedure: (§1) FIGS. 3A-3D show dot blot and Western blot analysis. Recombinant TK1 protein from canine (rCTK1), feline (rFTK1), equine (rETK1) and human (rHTK1) at concentration ranging from 20-0.6 ng was blotted. The membranes were developed with (FIG. 3A) monoclonal antibody produced against active site mAb1 ([…], diluted in TBS containing 3% of non-fat dry milk) and (FIG. 3B) monoclonal antibody produced against C terminal region mAb2 ([…], diluted in TBS containing 3% of non-fat dry milk). Recombinant dog TK1, human TK1 at concentration (10, 5 and 2.5 ng) and human TK1 positive cell extract containing 25 μg of protein (CEM TK1+) and TK1 negative cell extract containing 25 µg of protein (CEM TK1−) were electrophoresed using SDS-PAGE, followed by Western blots with […] of mAb1 diluted in TBS containing 3% of non-fat dry milk (FIG. 3C). Western blot results with […] of mAb2 diluted in TBS containing 3% of non-fat dry milk mAb 2 (FIG. 3D).
# (§2) Western blot assay: recombinant canine TK1, human recombinant TK1 ([…]) and cytosolic TK1 from human (CEM+/−) containing 25 µg of proteins were diluted in a denaturing sample buffer, boiled, and loaded onto a 12% polyacrylamide gel. The gel was electrophoresed in SDS running buffer. […]
# [2] = molecular target: T2, recombinant equine TK1; assay: ECL dot blot with recombinant TK1, 20 to 0.6 ng
# Procedure: as §1
# (§3) ECL dot blot assay was carried out as described previously (He et al., 2000). In brief, 3 μl of recombinant enzyme at varying concentrations ranged from 20 to 0.6 ng was applied on nitrocellulose membrane (Thermo scientific, Germany). The membrane was blocked in non-fat dry milk 10% (Bio-Rad) for 1 h and then incubated with the hybridoma supernatants or antisera and incubated for overnight at 4° C. Then after the membrane was washed and incubated with a biotinylated second antibody conjugated with horseradish peroxidase directed against mouse (GE healthcare, UK) for 1 h at room temperature. Followed by adding ECL reagent. Finally, the signal was detected by ChemiDoc Imaging System BIO-RAD.
# [3] = molecular target: T3, recombinant feline TK1; assay: ECL dot blot with recombinant TK1, 20 to 0.6 ng
# Procedure: as §1, §3
# [4] = molecular target: T4, recombinant human TK1; assay: ECL dot blot with recombinant TK1, 20 to 0.6 ng
# Procedure: as §1, §3
# [5] = molecular target: T5, recombinant canine TK1; assay: Quartz Crystal Microbalance, antibody immobilized, recombinant canine TK1 injected
# Procedure: The kinetics of the interaction between the two monoclonal antibodies, mAb1 and mAb2 (150 kDa), and canine recombinant TK1 was measured by a Quartz Crystal Microbalance (QCM) technology. To characterize binding interactions, the monoclonal antibody was immobilized on the sensor surface and the sample containing recombinant canine TK1 was injected over the sensor surface. […] The signal output is given in frequency (Hz) and is directly related to changes in mass on the sensor surface.
# [6] = molecular target: T2, recombinant equine TK1; assay: ECL dot blot with recombinant TK1
# Procedure: as §1, §3
# [7] = molecular target: T3, recombinant feline TK1; assay: ECL dot blot with recombinant TK1
# Procedure: as §1, §3
# [8] = molecular target: T4, recombinant human TK1; assay: ECL dot blot with recombinant TK1
# Procedure: as §1, §3
# [9] = molecular target: T1, human cytosolic TK1 in CEM TK1+ cell …; assay: Western blot after SDS-PAGE, mAb2 at 2 pg/ml as printed
# Procedure: as §1, §2
Binder,binding result [1],binding result [2],binding result [3],binding result [4],Kd [5] [pM],koff [5] [s⁻¹],kon [5] [M⁻¹ s⁻¹],binding result [6],binding result [7],binding result [8],binding result [9]
"CTK1-1 (mAb1) (antibody, mouse IgG1, kappa, V domains shown, Mouse monoclonal IgG1-kappa from hybridoma sub-clone 9C8, raised against the active site peptide (amino acids 161-183) of human TK1; also called 9C8) VH: EVKLVESGGGLVQPGDSLRLSCATSGFTFNDHYMNWVRQPPGKALEWVAFIGNKAYGYKIEYNSSVKGRFTISRDDSQSFLYLQLNTLRSEDSATYYCARDGAFIYWGQGTVVTVSA VL: DVVMTQTPLSLPVSLGDQASISCRSSQSLVHSNGNTYLHWYLQKPGQSPKLLIYKVSNRFSGVPDRFSGSGSGSDFTLKISRVEAEDLGVYFCSQSTHIPYTFGGGTELEIRR",binds,binds,binds,binds,300 to 750,6.1e-05 to 0.00023,240000 to 300000,–,–,–,–
"CTK1-2 (mAb2) (antibody, mouse IgG2b, kappa, V domains shown, Mouse monoclonal IgG2b-kappa from hybridoma sub-clone 3H11, raised against the C-terminal peptide (amino acids 211-225) of dog TK1; also called 3H11) VH: EVQLQQSGAELVKPGASVKLSCTASGFNIKDTYMHWVKQRPEQGLEWIGRIDPANGNTKYDPKFQGKATITPDTSSTTAYLQLSSLTSEDTAVYYCARNRAYYGNYYAMDYWGQGTSVTVSS VL: DIVMTQSPSSLTVTAGEKVTMSCKSSQSLLNSRNQKNYLTWYQQKPGQPPKLLIYWASTRESGVPDRFTGSGFGTDFTLAISSVQAEDLAVYYCQNDYSYPFTFGSGTKLEIKR",–,–,–,–,200 to 400,0.00011 to 0.00019,500000 to 540000,no binding (tested: 20 to 0.6 ng),no binding (tested: 20 to 0.6 ng),no binding (tested: 20 to 0.6 ng),no binding
